Data taken from patent publication US20110225664, “MEGANUCLEASE VARIANTS CLEAVING A DNA TARGET SEQUENCE FROM A GLUTAMINE SYNTHETASE GENE AND USES THEREOF” (Cellectis, published 2011).
Positions count from the first letter of the chain named.

Columns and labels:
Test in all cases: cell_activity; CHO extrachromosomal SSA assay
[1] = biological target: T1, I-CreI heterodimer Mt 3C + Mt 4C (Chlamydomonas reinhardtii (engineered), UniProt P05725;P05725 SEQ:1-167,SEQ:1-167)
T1 chain 1: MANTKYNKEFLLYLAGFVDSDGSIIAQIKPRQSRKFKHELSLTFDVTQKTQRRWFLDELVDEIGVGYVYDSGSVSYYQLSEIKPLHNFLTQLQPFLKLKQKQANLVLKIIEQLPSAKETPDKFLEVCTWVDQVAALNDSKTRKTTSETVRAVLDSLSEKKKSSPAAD
T1 chain 2: T1 chain 1 with S20G, E39Q, D45Q, E58K, Y69A, S71R, Y76D, Q78R, T119S, V133I
Description: (§1) CHO cells were transfected with Polyfect® transfection reagent according to the supplier's protocol (QIAGEN). 72 hours after transfection, the level of Beta galactosidase expression for each transfection was quantified using the Beta-Glo® Assay System (Promega). The Beta-Glo Assay contains a luciferin-galactoside substrate (6-O-β-galactopyranosylluciferin) that can be cleaved by β-galactosidase to form luciferin that is then utilized in a firefly luciferase reaction to generate light. For each transfection, approximately 100,000 cells in 100 μl of medium were combined with an equal volume of Beta-Glo lysis/revelation buffer as described by the manufacturer (Promega). After 30 minutes of incubation at room temperature, signal was measured with a luminometer (Perkin Elmer Victor multilabel plate reader).
(§2) Several variants described in examples 3, 5, 6, 7 and 8 were first recloned in pCLS1768 (FIG. 16). Then, in order to identify the heterodimer displaying the maximal cleavage activity with the GSCHO1 target in CHO cells, I-CreI variants cleaving the GSCHO1.3 or GSCHO1.4 targets (described in examples 3, 5, 6, 7 and 8) were tested together as heterodimers against the GSCHO1 target in the CHO extrachromosomal assay.

[2] = biological target: T2, I-CreI heterodimer Mt 3C + Mt 4B (Chlamydomonas reinhardtii (engineered), UniProt P05725;P05725 SEQ:1-167,SEQ:1-167)
T2 chain 1: T1 chain 1
T2 chain 2: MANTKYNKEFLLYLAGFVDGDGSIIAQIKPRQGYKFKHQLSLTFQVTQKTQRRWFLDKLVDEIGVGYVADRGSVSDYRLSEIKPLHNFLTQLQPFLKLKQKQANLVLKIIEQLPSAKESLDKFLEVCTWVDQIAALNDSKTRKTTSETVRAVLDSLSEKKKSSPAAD
Description: as §1, §2

[3] = biological target: T3, I-CreI heterodimer Mt 3B + Mt 4D (Chlamydomonas reinhardtii (engineered), UniProt P05725;P05725 SEQ:1-167,SEQ:1-167)
T3 chain 1: T1 chain 1 with S20A, E58K, T119S, D121A, V133I
T3 chain 2: T2 chain 2 with Q45R, A69H, R78I, L120P
Description: as §1, §2

[4] = biological target: T4, I-CreI heterodimer Mt 3A + Mt 4D (Chlamydomonas reinhardtii (engineered), UniProt P05725;P05725 SEQ:1-167,SEQ:1-167)
T4 chain 1: T1 chain 1 with S20G, E58K, Y67H, T119S
T4 chain 2: T2 chain 2 with Q45R, A69H, R78I, L120P
Description: as §1, §2

[5] = biological target: T5, I-CreI heterodimer Mt 3A + Mt 4A (Chlamydomonas reinhardtii (engineered), UniProt P05725;P05725 SEQ:1-167,SEQ:1-167)
T5 chain 1: T1 chain 1 with S20G, E58K, Y67H, T119S
T5 chain 2: T2 chain 2 with G20S, Q45K, V46M, A69H, R78I, L120P
Description: as §1, §2

[6] = biological target: T6, I-CreI heterodimer Mt 3C + Mt 4D (Chlamydomonas reinhardtii (engineered), UniProt P05725;P05725 SEQ:1-167,SEQ:1-167)
T6 chain 1: T1 chain 1
T6 chain 2: T2 chain 2 with Q45R, A69H, R78I, L120P
Description: as §1, §2

[7] = biological target: T7, I-CreI heterodimer Mt 3A + Mt 4C (Chlamydomonas reinhardtii (engineered), UniProt P05725;P05725 SEQ:1-167,SEQ:1-167)
T7 chain 1: T1 chain 1 with S20G, E58K, Y67H, T119S
T7 chain 2: T2 chain 2 with G33S, Y34R, L120P
Description: as §1, §2

[8] = biological target: T8, I-CreI heterodimer Mt 3A + Mt 4B (Chlamydomonas reinhardtii (engineered), UniProt P05725;P05725 SEQ:1-167,SEQ:1-167)
T8 chain 1: T1 chain 1 with S20G, E58K, Y67H, T119S
T8 chain 2: T2 chain 2
Description: as §1, §2

[9] = biological target: T9, I-CreI heterodimer Mt 3B + Mt 4C (Chlamydomonas reinhardtii (engineered), UniProt P05725;P05725 SEQ:1-167,SEQ:1-167)
T9 chain 1: T1 chain 1 with S20A, E58K, T119S, D121A, V133I
T9 chain 2: T2 chain 2 with G33S, Y34R, L120P
Description: as §1, §2

[10] = biological target: T10, I-CreI heterodimer Mt 3B + Mt 4A (Chlamydomonas reinhardtii (engineered), UniProt P05725;P05725 SEQ:1-167,SEQ:1-167)
T10 chain 1: T1 chain 1 with S20A, E58K, T119S, D121A, V133I
T10 chain 2: T2 chain 2 with G20S, Q45K, V46M, A69H, R78I, L120P
Description: as §1, §2

[11] = biological target: T11, I-CreI heterodimer Mt 3B + Mt 4B (Chlamydomonas reinhardtii (engineered), UniProt P05725;P05725 SEQ:1-167,SEQ:1-167)
T11 chain 1: T1 chain 1 with S20A, E58K, T119S, D121A, V133I
T11 chain 2: T2 chain 2
Description: as §1, §2

B1: GSCHO1 (dsDNA)
DNA 1: TGGCATACAAGTTTCTGCCCCAGGGTGAGAAAGTCCAACAATCGTCTGTCA
DNA 2: TGACAGACGATTGTTGGACTTTCTCACCCTGGGGCAGAAACTTGTATGCCA
[1]
  activity: 2.9e+06 luminescence units
[2]
  activity: 2.8e+06 luminescence units
[3]
  activity: 3.1e+06 luminescence units
[4]
  activity: 2.5e+06 luminescence units
[5]
  activity: 2.8e+06 luminescence units
[6]
  activity: 2.4e+06 luminescence units
[7]
  activity: 2e+06 luminescence units
[8]
  activity: 2.3e+06 luminescence units
[9]
  activity: 3.1e+06 luminescence units
[10]
  activity: 500000 luminescence units
[11]
  activity: 3.1e+06 luminescence units
